The target of experiment [1] is recombinant human soluble gpNMB (recombinant human gpNMB-FLAG-His) (human) (UniProt Q14956). The experiment can be described thus: antigen ELISA, vs hGPN06-1_H1L1. (In general: In an ELISA, binding on a coated surface is turned into a signal by an enzyme label.)
Experiment [2] has the same target. The experiment can be described thus: antigen ELISA.

B1: hGPN06-1_H1L1 VL Y93A (antibody, V domains shown)
VH: QVQLVQSGAEVKKPGASVKVSCKASGYTFTDNWMGWVKQRPGQGLEWIGAIDPSDSFTNYNQNFKGRVTMTVDTSISTAYMELSRLRSDDSAVYFCTRSGYYGSPKLGGDYWGQGTLVTVSS
VL: EIVLTQSPSSLSASVGDRVTITCSASSSISYMHWYQQKSGTAPKLLIYSTSNLASGVPSRFSGSGSGTDFTFTISSLQPEDAATYYCHQWNSAPCTFGGGTKLEIK
Take B1: the Relative binding activity in experiment [1] is 0. In addition, the EC50 in experiment [2] is 25.3 nM.

B2: hGPN06-1_H1L1 VH D55A (antibody, V domains shown)
VH: QVQLVQSGAEVKKPGASVKVSCKASGYTFTDNWMGWVKQRPGQGLEWIGAIDPSASFTNYNQNFKGRVTMTVDTSISTAYMELSRLRSDDSAVYFCTRSGYYGSPKLGGDYWGQGTLVTVSS
VL: EIVLTQSPSSLSASVGDRVTITCSASSSISYMHWYQQKSGTAPKLLIYSTSNLASGVPSRFSGSGSGTDFTFTISSLQPEDAATYYCHQWNSYPCTFGGGTKLEIK
As to B2, the Relative binding activity in experiment [1] was determined as 0. For the same molecule, the EC50 in experiment [2] worked out at 31.5 nM.

What is called EC50 is the midpoint of the concentration-response curve.

Source of the values: EP4772193A1.
